Reference: doi:10.1101/2023.11.17.567542 (bioRxiv, 2023)

Molecular target: T1, HypD (Escherichia coli, UniProt P24192 1-373)
T1 sequence (looked up): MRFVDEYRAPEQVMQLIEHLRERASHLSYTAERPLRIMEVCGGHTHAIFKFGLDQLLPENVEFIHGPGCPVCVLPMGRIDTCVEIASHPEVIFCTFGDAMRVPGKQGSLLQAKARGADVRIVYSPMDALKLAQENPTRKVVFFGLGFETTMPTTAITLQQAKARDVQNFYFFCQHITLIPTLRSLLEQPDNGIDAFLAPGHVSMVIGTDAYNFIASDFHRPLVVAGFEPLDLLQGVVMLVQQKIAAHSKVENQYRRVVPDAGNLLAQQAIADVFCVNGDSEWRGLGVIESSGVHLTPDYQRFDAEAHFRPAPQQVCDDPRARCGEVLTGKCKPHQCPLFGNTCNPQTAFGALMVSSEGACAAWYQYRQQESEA
Test: pull-down

B1: StrepII-tagged HypC with amino acid exchange C2A (natural protein, Escherichia coli, UniProt P0AAM3 2-90, looked up)
chain: AIGVPGQIRTIDGNQAKVDVCGIQRDVDLTLVGSCDENGQPRVGQWVLVHVGFAMSVINEAEARDTLDALQNMFDVEPDVGALLYGEEK
binding result: binds
